From paper PMC9621694 (2022)

How the values were obtained:
Experiment in all cases: SPR
rsvfv_hal_1 = target: rsvfv_hal_1
rsvfv_hal_2 = target: rsvfv_hal_2
rsvfv_hal_3 = target: rsvfv_hal_3

- Kd (rsvfv_hal_1): 900 nM
- Kd (rsvfv_hal_2): 1000 nM
- Kd (rsvfv_hal_3): 1300 nM
B1: neutralizing antibody hRSV90 (antibody, V domains shown)
VH: EVQLVESGGGLVQPRRSLRLSCAASGFTFDDYTIHWVRQAPGKGLEWVSGITWNSGYIGYADSVKGRFTISRDNARNSLYLQMNSLRAEDTALYYCVRDAYVSGSDYYYYGLDVWGRGTLVTVSS
VL: EIVMTSSPATLSVSPGERVTLFCRASQSVISNLAWYQQKSGQAPRLLIYGASTRATGIPSRFSGSGSGTEFTLTISSLQSEDFAVYFCQQYNNWPLTFGGGTQVNVQ
